From the supplement of paper PMC10567573
± gives the standard deviation.

Experiment: protein stability index of a GFP-peptide fusion (GPS, HEK-293T) (PSI 1-6); higher = more stable
Settings: c terminus: a fixed tail appended
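Note: 24-mer peptide tiles fused after GFP, lentivirally expressed, FACS-sorted into six equal bins by GFP/DsRed ratio, decoded by Illumina sequencing, PSI is the read-weighted mean bin number.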

Sequence | protein stability index (treatment: DMSO) | protein stability index (treatment: MLN4924 1 uM, 8 h)
SRHLNSQVKKTTTRWCHIVRDSDS [PHTF1] | 2.33 ± 0.54 | 3.15 ± 0.66
SEEQVSKNLFGPPLESAFDHEDFT [FCHO1] | 5.22 ± 0.4 | 5.26 ± 0.21
LQSSKNSYSFQNPSSFDPSMLLQR [RNF180] | 2.9 ± 0.27 | 3.3 ± 0.17
AAWQGHLPIVKLLAKQPGVSVNAQ [RIPK4] | 2.57 ± 0.38 | 3.07 ± 0.61
PSIIPQEDPSQQFLQQSLERVYSL [INTS4] | 3.58 ± 0.17 | 3.58 ± 0.28
LCSPGHERRGTPADTEEPTKDPDV [PSD2] | 5.66 ± 0.19 | 5.43 ± 0.26
QLQDQDQKLLEQTQIIGEQNARLA [FBXO28] | 4.75 ± 0.18 | 4.74 ± 0.15
SLQSTGKCLLYCNGVLEPLYLCPN [SLC25A39] | 2.03 ± 0.34 | 2.21 ± 0.5
NVSGLRFETQMKTLAQFPETLLGD [KCNA4] | 3.53 ± 0.48 | 3.86 ± 0.1
PDVTQQLLQKYNMQFLIRSHECKP [PPEF2] | 2.8 ± 0.21 | 2.71 ± 0.25
ILTIMATLKIRNSNFYTVAVTSLS [TMEM106C] | 3.3 ± 0.36 | 3.16 ± 0.38
VACGMVHLLIPELGACVAPGGNLI [DNAAF3] | 2.78 ± 0.27 | 3.11 ± 0.26
KEEDHYQRARKEREKEDYLHLKRQ [RHOBTB2] | 4.85 ± 0.15 | 5.01 ± 0.19
NKNSTDVKGCSMYVALFPCNECAK [DCTD] | 2.19 ± 0.37 | 2.13 ± 0.14
VLVNVLQAIYVIDFFWNETWYLKT [DHCR7] | 3.09 ± 0.25 | 3.22 ± 0.27
RWCCCCGERETRTPEELTILGETQ [CLCN6] | 3.76 ± 0.27 | 3.79 ± 0.18
TELLAKITNTDVDCLKACQEQIEA [CCND2] | 4.45 ± 0.046 | 4.61 ± 0.32
VSQQTGSPGKQPGENSDCHRDSSQ [ZNF8] | 5.31 ± 0.47 | 5.47 ± 0.21
EQKNHTFPRLNRNKYMVTDGAAYI [PLD5] | 2.85 ± 0.078 | 3.19 ± 0.24
TPDTRHPCSLGSSLVADYSDSESE [YJU2B] | 5.39 ± 0.23 | 5.59 ± 0.25
PWCPHLVAVCPIPAAGLDVTQPCG [HDAC6] | 2.4 ± 0.24 | 2.67 ± 0.34
TIQKQLKDHSCKDNIREAFQIYDK [EFHC1] | 3.22 ± 0.13 | 3.13 ± 0.13
PVCADLQAKILQCYRENTHQTLKC [CHCHD3] | 3.02 ± 0.23 | 3 ± 0.25

Sequence | protein stability index (treatment: DMSO) | protein stability index (treatment: MLN4924 1 uM, 8 h)
VGSGGRRDSTARRPRPQGRSVSEP [RTN2] | 5.09 ± 0.04 | 5.19 ± 0.15
MMKAKGDLEMKEEEEISETGELVG [ZBED2] | 5.59 ± 0.27 | 5.35 ± 0.26
RDKILTATIENNRVILEIDNARLA [KRT13] | 2.69 ± 0.29 | 2.83 ± 0.33
TNNPRFDKMEGNPICVQIPWDKNP [CRY1] | 3.47 ± 0.3 | 3.69 ± 0.25
LIANIVHDGKPSEGSYRIHVLHHG [USP39] | 2.21 ± 0.2 | 2.19 ± 0.25
DYVHISSKPCDLHCTTVDGQRQLM [ADAMTSL2] | 3.45 ± 0.29 | 3.44 ± 0.23
MKSEEQKIKDARKGPLVPFPNQKS [KMT5A] | 5.01 ± 0.18 | 5.23 ± 0.19
VVGTPCYISPELCEGKPYNQKSDI [NEK8] | 3.29 ± 0.38 | 3.49 ± 0.56
AKKAMGYQPLVTMDDAMERTVQSF [NSDHL] | 3.62 ± 0.069 | 3.46 ± 0.39
SASSIKQILLEWCRSKTLGYQHVD [SMTNL2] | 2.22 ± 0.19 | 2.42 ± 0.35
PGQHLSDYSQLNESTTKESSEASQ [FBXO34] | 5.47 ± 0.28 | 5.6 ± 0.24
PGGITSHQLLGLFPSTSYNARLQA [TNXB] | 2.98 ± 0.084 | 3.02 ± 0.085
APRGTPDPGLGEGPALWLRSTCVY [PLEKHN1] | 2.43 ± 0.24 | 2.34 ± 0.27
ENKENEAFEFKKPVRPVSRGCLHS [CDC25A] | 3.87 ± 0.7 | 3.73 ± 0.52
KKQQELTAAVLGLICEGLYPASIV [ZBED1] | 2.97 ± 0.63 | 3.02 ± 0.58
YQPLVTMDDAMERTVQSFRHLRRV [NSDHL] | 3.14 ± 0.24 | 3.22 ± 0.31
CNDLFKVNPFQLQQFRADPSTASL [TIAF1] | 2.71 ± 0.063 | 2.78 ± 0.18
VGELNGYLRDSSPAPCADGPAGGL [PWWP2B] | 4.29 ± 0.23 | 4.16 ± 0.068
SFVYVNPEDGRIFAQRTFDYELLQ [PCDHGC5] | 2.2 ± 0.26 | 2.56 ± 0.28
HPFLYLSLEISPQNVDVNVHPTKH [MLH1] | – | 2.37 ± 0.34
LAFLDKIKSVKESLQESVEDSLAT [IQUB] | 4.03 ± 0.45 | 3.77 ± 0.69
GHGTRKRVPLGRLELLEEVLALGL [RSAD1] | 2.15 ± 0.21 | 2.3 ± 0.51
